Each block holds one molecule with its values, some of them ahead of it.
How the values were obtained:
SKBR-3 cells = experiment: Pak1-mediated macropinocytosis, vesicle formation by confocal microscopy; format: cell-based, human
Procedure: FIG. 3—Requirement of DLC1/PIN in Pak1 mediated macropinocytosis. SKBR-3 cells were cotransfected with RFP-DLC1/PIN and GFP-Pak1 (upper panel), RFP-DLC1/PIN-S88A, and GFP-Pak1 (middle panel) and RFP-DLC1-1-66, and GFP-Pak1 (lower panel). Vesicle formation and localization of GFP and RFP proteins were analyzed by confocal microscopy. Ten randomly selected fields were analyzed for each condition. The experiment was repeated twice with similar results. Quantitation of vesicles formation was done using the following scoring system. −, cells containing 0–9 vesicles; +, cells containing 10–20 vesicles; and ++, cells containing >20 vesicles.
Requirement of DLC1/PIN in Pak1 mediated macropinocytosis. […] The inventors have used the fluorescein isothiocyanate (FITC)-labeled Dextran as a marker of endocytosis using a well-established dextran beads uptake assay (Dharmawardhane et al., 2000). […]
SK-BR3 cells were cotransfected with RFP-DLC1 and GFP-Pak1 (upper panel), RFP-DLC1-S88A and GFP-Pak1 (middle panel), and RFP-DLC8-1-66 and GFP-Pak1 (bottom panel). Vesicle formation and localization of GFP and RFP proteins were analyzed by confocal microscopy. Ten randomly selected fields were analyzed for each condition. […]

Human dendritic cells = experiment: Macropinocytosis in dendritic cells, FITC-dextran uptake; format: cell-based; conditions: expression in human dendritic cells
Procedure: (§1) FIG. 16—DLC1 is required for macropinocytosis in dendritic cells. Human dendritic cells were plated on cover sips in 6-well tissue culture plates, transfected with RFP-DLC1 wild type or DLC1-1-66 mutant lacking Pak1 binding and phosphorylation sites. After 12 hours, FITC-dextran was added to the culture medium for 20 min and cells were fixed and stained with Topro-3 (a DNA dye) and analyzed by confocal microscopy for RFP-DLC1 (red) or RFP-DLC1-1-66 (red) and FITC-dextran (green). White arrows point to RFP-DLC1-1-66 transfected cells and red arrows point to cells transfected with RFP-DLC1.
as §1, with “Human” for “FIG. 16—DLC1 is required for macropinocytosis in dendritic cells. Human”, “slips” for “sips”

[1] = tested on: ER transactivation (ERE-luc); experiment: ERE-luc transactivation assay; format: cell-based, human; conditions: compared to the wild type DLC1
Procedure: MCF-7/DA-Pak1 cells were transfected with ERE-luc, treated with or without Dox for 24 h and then with or without E2 (10^−9M) and/or Tam (10^−8M) for 24 h, and ERE-luc activity was measured. […] FIG. 20D: MCF-7/TAM-Sen and MCF-7/TAMR1 cells were transfected with ERE-luc and treated with E2 or Tam for 24 h and ERE-luc activity was measured. […] FIG. 20L: Ishikawa cells were cotransfected with Pak1 siRNA control or Pak1 siRNA wt and treated with or without Tam (10^−8M) for 24 h and ERE-luc activity was measured.
Ishikawa and MCF-7/TAMR1 cells were transfected with control or Pak1 siRNA for 48 h and then with ERE-luc for 24 h and treated with E2 (10^−9M) for 24 h and ERE-luc activity was measured. […] Ishikawa cells were treated with control or and Pak1 and DLC siRNA for 48 h and then transfected with ERE-luc and treated with Tam (10^−8M) for 24 h and ERE-luc activity was measured.

DLC1/PIN = experiment: In vivo 32P-orthophosphate labeling and immunoprecipitation of T7-DLC1/PIN; format: cell-based, human; conditions: MCF-7 cells, coexpression with T7-DLC1/PIN
Procedure: FIGS. 2A–2G—MapDLC1/PINg of interaction domains of Pak1 and DLC1/PIN. FIG. 2A: Identification of Pak1 domains that interact with DLC1/PIN. GST-Pak1 fusion proteins containing wild-type (amino acids 1–545), kinase domain (amino acids 270–545), N-terminal domain (amino acids 1–132), PIX binding domain (amino acids 132–270), Nck-binding domain (amino acids 1–75), Cdc42/Rac-interacting (CRIB) domain (amino acids 52–132), and auto-inhibitory domain (amino acids 75–149) were incubated with in vitro translated DLC1/PIN (amino acids 1–89), and binding was analyzed by GST pull-down assay. FIG. 2B: Identification of the DLC1/PIN region that is involved in the binding of Pak1. GST-fusions of various lengths of DLC1/PIN were used in the GST pull-down assay using ^35S-labelled Pak1 (amino acids 1–545). FIGS. 2C–2G—Pak1 phosphorylation of DLC1/PIN. FIG. 2C: In vitro kinase assay using GST-DLC1/PIN as a substrate and purified bacterially expressed Pak1 as an enzyme. MBP was used as a positive control. FIG. 2D: ZR75R cells stably expressing T7-DLC1/PIN were labeled in vivo with ^32P-orthophosphate, serum starved, treated with EGF or HRG, and immunoprecipitated and phosphorylation status of DLC1/PIN was visualized by autoradiography. […] Cells were metabolically labeled with ^32P orthophosphate, treated with or without EGF (1 nM) and phosphorylation of T7-DLC1/PIN was analyzed by immunoprecipitation. […]

DLC1 promoter = DLC1 promoter luciferase reporter; format: cell-based, human; conditions: MCF-7 cells, expression of inhibitor
Procedure: FIGS. 21A–21J—Estrogenic signals upregulate DLC1 expression via Pak1 pathway. FIG. 21A: DLC1 upregulation by E2 or Tam. MCF-7/Tam-sen, MCF-7/TAMR1 and Ishikawa cells were treated with E2 (10^−9M) or Tam (10^−9M) for 24 h, and cell lysates were assayed for DLC1 and Pak1 protein expression. FIG. 21B: Upregulation of DLC1 mRNA in MCF-7 cells treated with different doses of E2 for 24 h. FIG. 21C: Effect of different periods of E2 treatment and cycloheximide (CHX) and Actinomycin D (ACTD) treatment on the ability of E2 to upregulate DLC1 mRNA in MCF-7 cells. FIG. 21D: DLC1 mRNA and protein levels in MCF-7/DA-Pak1 cells by Northern and Western blotting. FIG. 21E: DLC1 mRNA and protein levels in MCF-7/DN-Pak1 cells by Northern and Western blotting. FIG. 21F: Downregulation of DLC1 protein expression in MCF-7 cells treated with Pak1-siRNA for 24 h. FIG. 21G: Modulation of DLC1 promoter (1245 bp) luc activity by the expression of wtPak1 or DN-Pak1. MCF-7 cells were transfected with DLC1-luc and transfected with either wtPak1 or Pak1 inhibitor 83-149 and luc activity was measured after 24 h. FIG. 21H: Upregulation of DLC1 promoter luc activity following pak1 induction in MCF-7/DA-Pak 1 cells. FIG. 21I: Downegulation of DLC1 promoter luc activity in MCF-7/DN-pak1 cells. […]

B1: DLC1-66 peptide: SEQ ID NO:11; DLC1/PIN mutant, amino acids 1–66, lacking the C-terminal 23 amino acids (Pak1 binding and phosphorylation sites) (protein, listed as Homo sapiens)
chain: MCDRKAVIKNADMSEEMQQDSVECATQALEKYNIEKDIAAHIKKEFDKKYNPTWHCIVGRNFGSYV
- transfected cells in which formation of vesicles was completely blocked (SKBR-3 cells; cotransfected with GFP-Pak1): more than 80%
- macropinocytic functions (SKBR-3 cells; expression in human breast cancer cell line SKBR3): blocks macropinocytic functions
- macropinocytic functions (Human dendritic cells): blocks macropinocytic functions

B2: DLC1 1-68R mutant: DLC1 mutant lacking amino acids 67–89, behaves as a dominant-negative (protein, UniProt P63167 1-66, looked up, fragment)
chain: MCDRKAVIKNADMSEEMQQDSVECATQALEKYNIEKDIAAHIKKEFDKKYNPTWHCIVGRNFGSYV
- ERE-transactivation in the presence of tamoxifen [1]: reduced ERE-transactivation

- DLC1 promoter activity (DLC1 promoter): suppressed
B3: […] Pak1 auto inhibitory fragment used as an inhibitor (Pak1 amino acids 83–149) (protein, UniProt Q13153 83-149, looked up, fragment)
chain: HTIHVGFDAVTGEFTGMPEQWARLLQTSNITKSEQKKNPQAVLDVLEFYNSKKTSNSQKYMSFTDKS
- EGF-stimulated DLC1/PIN phosphorylation (DLC1/PIN): completely blocked
